± gives the standard deviation of the averaged measurements.
Tested on: Saccharomyces cerevisiae
Test: protein stability index of tFT-peptide fusion (C-terminal peptide) (PSI (0-1 scale)); higher = more stable (slower turnover)
Settings: genetic background: wild type; temperature: 30 C
Description: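 Multiplexed protein stability (MPS) profiling in S. cerevisiae. Random 12-aa peptides (tFT-X12 library) are fused to the C-terminus of a sfGFP-mCherry tandem fluorescent timer, after mCherry and a GGGS linker. Cells are FACS-sorted into 8 mCherry/sfGFP bins and deep-sequenced. The protein stability index (PSI) is the read-weighted bin average, scaled from 0 (unstable) to 1 (stable). Only peptides with >10 reads are reported; cells were grown at 30 °C in SC-His with glucose.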
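Also: PSI is a weighted mean of sequencing reads over stability bins, variants kept only with over 10 reads, mCherry proximal and sfGFP distal, peptide attached via GGGS linker.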

Row | Sequence | protein stability index
1 | EAGRRVGARRVG | 0.689 ± 0.059
2 | EAKKKKRRDRKE | 0.621 ± 0.029
3 | EALKCFADAYTC | 0.661 ± 0.063
4 | EAQWRGVRHHSR | 0.641 ± 0.036
5 | EARRGTAGGQKK | 0.626 ± 0.039
6 | EASSRITFGLII | 0.698 ± 0.041
7 | ECGAGRVYGDPW | 0.652 ± 0.063
8 | EEGAGLLWSAVG | 0.641 ± 0.014
9 | EEGVARYVERWV | 0.675 ± 0.0075
10 | EERGESRGWRVK | 0.604 ± 0.045
11 | EERHAEPRNCMF | 0.773 ± 0.015
12 | EEVAISFFFLSL | 0.468 ± 0.055
13 | EEWGSLEWTAGR | 0.778 ± 0.019
14 | EEYFFVNLFFAS | 0.752 ± 0.085
15 | EGACPFLSFRGF | 0.658 ± 0.024
16 | EGGESRGKGYRS | 0.691 ± 0.025
17 | EGGGAGGLMRPE | 0.65 ± 0.016
18 | EGGGGGAGDARR | 0.685 ± 0.017
19 | EGGGGVEGAAWG | 0.694 ± 0.022
20 | EGGGWGRYDGFG | 0.69378 ± 9.6e-05
21 | EGGPRTGGRGSR | 0.67 ± 0.035
22 | EGHREARGGMAR | 0.673 ± 0.018
23 | EGINVEICISLL | 0.573 ± 0.083
24 | EGMENECDLRIK | 0.74 ± 0.066
25 | EGPPYSRYKGGS | 0.645 ± 0.11

Row | Sequence | protein stability index
26 | EGRGQRGARAAQ | 0.7181 ± 0.0034
27 | EGVSNGCAILLF | 0.673 ± 0.029
28 | EGWPGGRGGAGL | 0.614 ± 0.032
29 | EIGWEGLEGRGG | 0.756 ± 0.11
30 | EIGWTEGGECVG | 0.632 ± 0.051
31 | EKGAEGDHGEVR | 0.678 ± 0.017
32 | EKGRVGLKIIKE | 0.695 ± 0.038
33 | EKGWFDLGGCQV | 0.723 ± 0.035
34 | EKHLKKEIQIKK | 0.76 ± 0.07
35 | EKIRGFPGEIGE | 0.694 ± 0.022
36 | EKKKEKHKDQEK | 0.692 ± 0.055
37 | EKKKKENKVKRF | 0.664 ± 0.013
38 | EKKKKNKNQEKQ | 0.671 ± 0.044
39 | EKKKNKTQLKTK | 0.667 ± 0.024
40 | EKKNGKEKEKER | 0.6647 ± 0.0062
41 | EKKRQKKQKTGK | 0.67136 ± 0.00051
42 | EKKTNEKNSYNL | 0.659 ± 0.016
43 | EKPIPFCSSVAS | 0.713 ± 0.063
44 | EKVWTLTGLSHL | 0.722 ± 0.04
45 | EKYGKKIRRKNR | 0.766 ± 0.11
46 | ELELDRTEWVTI | 0.799 ± 0.05
47 | ELFGSGERRVVV | 0.68 ± 0.014
48 | ELGVGVLDRGCL | 0.608 ± 0.22
49 | ELLTCSSSVMLL | 0.799 ± 0.026
50 | ELPECEHLTSLT | 0.691 ± 0.068

Row | Sequence | protein stability index
51 | ELRCEMEFWCER | 0.594 ± 0.0066
52 | ELRSYAGMSGFN | 0.736 ± 0.014
53 | ELSARVCLGSLF | 0.676 ± 0.015
54 | ELVRIVREEYRC | 0.685 ± 0.1
55 | EMGGLKACRGGG | 0.553 ± 0.026
56 | EMGTTMATPCDH | 0.681 ± 0.0073
57 | ENGRRTDKKVST | 0.687 ± 0.023
58 | ENNWILSIKEKT | 0.747 ± 0.02
59 | ENQGQKQKKKKR | 0.753 ± 0.046
60 | ENQGQSYVTMRY | 0.725 ± 0.046
61 | EPESPVTARAKP | 0.672 ± 0.031
62 | EPLLVSPATPNL | 0.7311 ± 0.00091
63 | EPMHTLKSIITH | 0.635 ± 0.073
64 | EPNKGTNMKVND | 0.705 ± 0.048
65 | EPNSPTYLSMLI | 0.637 ± 0.018
66 | EQGAGFWVGGEV | 0.757 ± 0.099
67 | EQSERINKKARK | 0.67 ± 0.063
68 | EQSWEVWGRGQG | 0.744 ± 0.022
69 | ERAGPGGARRVD | 0.696 ± 0.018
70 | ERALYGFSSIFY | 0.667 ± 0.075
71 | ERASGNWQVYKG | 0.639 ± 0.011
72 | EREREKGEEEEG | 0.629 ± 0.0079
73 | ERERREGEGKRQ | 0.721 ± 0.023
74 | ERGGLGLSRCVS | 0.663 ± 0.077
75 | ERHTASGHLLFV | 0.729 ± 0.14

Row | Sequence | protein stability index
76 | ERLKRNKKSTNG | 0.726 ± 0.018
77 | ERMLHGTATSVW | 0.736 ± 0.046
78 | ERRGRDRSQTLR | 0.715 ± 0.014
79 | ERRKKKRGQETQ | 0.655 ± 0.12
80 | ERRPTYFFHDHE | 0.693 ± 0.055
81 | ERRPYVAGRRRF | 0.6722 ± 0.0049
82 | ERSQTKIANDKK | 0.719 ± 0.042
83 | ERSVSDSHERID | 0.678 ± 0.05
84 | ESASSLNFTSLM | 0.731 ± 0.053
85 | ESCIKGCSGVVS | 0.651 ± 0.06
86 | ESCLVSKFDVIV | 0.656 ± 0.052
87 | ESIEVGTGDWGG | 0.673 ± 0.053
88 | ESKERKTRKLKK | 0.677 ± 0.048
89 | ESLAKLPLRRPR | 0.63 ± 0.011
90 | ESLFFPFAFSSV | 0.809 ± 0.13
91 | ESQYAIFGHDIW | 0.709 ± 0.011
92 | ESRVLYGLCLWC | 0.596 ± 0.028
93 | ESSQLELRGGGR | 0.725 ± 0.0047
94 | ESVVKNDVTYVQ | 0.691 ± 0.041
95 | ETEGSSSLGTRI | 0.661 ± 0.021
96 | ETHRANTRMERL | 0.726 ± 0.049
97 | ETKEAKKKTIDS | 0.7217 ± 0.0065
98 | ETLEKYGDPMRD | 0.624 ± 0.0088
99 | ETSRTYGNFPIT | 0.774 ± 0.11
100 | EVCTFPGSIRSS | 0.521 ± 0.023

Row | Sequence | protein stability index
101 | EVGHLILYKIGC | 0.648 ± 0.017
102 | EVGLGAAGLSGP | 0.749 ± 0.031
103 | EVGVRCRVGVWV | 0.567 ± 0.029
104 | EVIRFMEKLPFR | 0.589 ± 0.025
105 | EVYTWTGNMWNI | 0.673 ± 0.095
106 | EWGAGGGVWGLG | 0.7684 ± 0.0069
107 | EWMIHQFCRVPV | 0.62 ± 0.0097
108 | EWVTRQFEGWEG | 0.7474 ± 0.0021
109 | EYFLGPLVRLGR | 0.762 ± 0.11
110 | EYRTAIYFQSLL | 0.701 ± 0.076
111 | FAALACKSRLEF | 0.685 ± 0.03
112 | FAFQAHWGCRDF | 0.703 ± 0.053
113 | FAHSPPPHLSVR | 0.624 ± 0.014
114 | FAISPCVSLAFF | 0.642 ± 0.05
115 | FALSSLTFPLPT | 0.744 ± 0.094
116 | FALWAGGTWFRT | 0.656 ± 0.013
117 | FARLTSSQGGKD | 0.68 ± 0.025
118 | FAVLGGGGGGGW | 0.711 ± 0.0097
119 | FCAVRYLVEGRV | 0.533 ± 0.0064
120 | FCIDSLNSFCFV | 0.643 ± 0.057
121 | FCLSIFYRAFFD | 0.537 ± 0.024
122 | FCLSVVELRGLM | 0.672 ± 0.049
123 | FCRTSGSVGDHV | 0.721 ± 0.017
124 | FCYVEDLSVSVD | 0.611 ± 0.0068
125 | FDNPFQATTATK | 0.823 ± 0.16

Row | Sequence | protein stability index
126 | FDVYIKVRGGDI | 0.64 ± 0.024
127 | FEDIPSMEYRSI | 0.702 ± 0.05
128 | FEHFKCRRRPVI | 0.723 ± 0.044
129 | FETGPGSCTACA | 0.68 ± 0.0099
130 | FFFECPCWLGVF | 0.542 ± 0.019
131 | FFGGAGVTEGLG | 0.683 ± 0.043
132 | FFLLLCSSCFGV | 0.583 ± 0.021
133 | FFNFVYYFTTPR | 0.635 ± 0.019
134 | FFPFFLSFSPPF | 0.708 ± 0.023
135 | FFPLPPSSPPSP | 0.7184 ± 0.0069
136 | FFPPAHFAPQPA | 0.719 ± 0.015
137 | FFPPLLSFPPTD | 0.7189 ± 0.0044
138 | FFPRVLRLRYPS | 0.754 ± 0.085
139 | FFPSFVLSFPCL | 0.641 ± 0.069
140 | FFSPFSPALYTS | 0.756 ± 0.014
141 | FFVLGRGVCLGA | 0.649 ± 0.066
142 | FFYGLHSHCAIP | 0.717 ± 0.081
143 | FGAGLTACPVSV | 0.517 ± 0.036
144 | FGAHVGWHEASP | 0.705 ± 0.018
145 | FGDPRRTDPLRL | 0.631 ± 0.04
146 | FGFWCGWFAALP | 0.689 ± 0.0094
